Reference: patent US20050064507

Experiments:
[1] = biological target: T1, ADD2 peptide KKKFRTPSFLKKSKK (SEQ ID NO:95) (not fully specified)
T1 chain: KKKFRTPSFLKKSKK

[2] = biological target: T2, AF15q14 peptide GFLNEPLSSKSQRRKSLKLK (SEQ ID NO:132) (not fully specified)
T2 chain: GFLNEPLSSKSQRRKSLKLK

[3] = biological target: T3, AKAP12 peptide AGWRKKTSFRKPKED (SEQ ID NO:99) (not fully specified)
T3 chain: AGWRKKTSFRKPKED

[4] = biological target: T4, ANK1 peptide AQIVKRASLKRGKQ (SEQ ID NO:90) (not fully specified)
T4 chain: AQIVKRASLKRGKQ

[5] = biological target: T5, ARHGAP6 peptide DGQKRKKSLRKKLD (SEQ ID NO:92) (not fully specified)
T5 chain: DGQKRKKSLRKKLD

[6] = biological target: T6, DGKI peptide NRKKKRTSFKRKA (SEQ ID NO:79) (not fully specified)
T6 chain: NRKKKRTSFKRKA

[7] = biological target: T7, ERN1 peptide ISDFGLAKKLAVGRHSFSRR (SEQ ID NO:145) (not fully specified)
T7 chain: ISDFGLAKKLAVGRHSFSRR

[8] = biological target: T8, HERG peptide TELEGGFSRQRKRKLSFRRR (SEQ ID NO:140) (not fully specified)
T8 chain: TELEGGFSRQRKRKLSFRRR

[9] = biological target: T9, KCNH2 peptide RQRKRKLSFRRRTDKD (SEQ ID NO:86) (not fully specified)
T9 chain: RQRKRKLSFRRRTDKD

[10] = biological target: T10, LIMK-2 peptide LRRRSLRRSNSISKSPGP (SEQ ID NO:121) (not fully specified)
T10 chain: LRRRSLRRSNSISKSPGP

[11] = biological target: T11, LIMK2 peptide KATTKKRTLRKNDRK (SEQ ID NO:108) (not fully specified)
T11 chain: KATTKKRTLRKNDRK

[12] = biological target: T12, MAP3K14 peptide WKGKRRSKARKKRK (SEQ ID NO:100) (not fully specified)
T12 chain: WKGKRRSKARKKRK

[13] = biological target: T13, MARCKS peptide KKKKKRFSFKKSFKL (SEQ ID NO:80) (not fully specified)
T13 chain: KKKKKRFSFKKSFKL

[14] = biological target: T14, MARCKS peptide KKRFSFKKSFKLSGFSFKKN (SEQ ID NO:119) (not fully specified)
T14 chain: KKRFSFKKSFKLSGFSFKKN

[15] = biological target: T15, NF1 peptide SQVQKQRSAGSFKRNSIKKI (SEQ ID NO:127) (not fully specified)
T15 chain: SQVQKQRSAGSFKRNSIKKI

[16] = biological target: T16, NIK peptide WKGKRRSKARKKRK (SEQ ID NO:131) (not fully specified)
T16 chain: WKGKRRSKARKKRK

[17] = biological target: T17, PARIS1 peptide EYLERRASRRRAV (SEQ ID NO:130) (not fully specified)
T17 chain: EYLERRASRRRAV

[18] = biological target: T18, PARIS1 peptide EYLERRASRRRAV (SEQ ID NO:138) (not fully specified)
T18 chain: EYLERRASRRRAV

[19] = biological target: T19, SDPR peptide EKIKRSSLKKVDSLKK (SEQ ID NO:104) (not fully specified)
T19 chain: EKIKRSSLKKVDSLKK

[20] = biological target: T20, SMARCA5 peptide MAQIERGEARIQRRISIKKA (SEQ ID NO:166) (not fully specified)
T20 chain: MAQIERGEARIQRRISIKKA

[21] = biological target: T21, SPTBN4 peptide EGGDRRASGRRK (SEQ ID NO:110) (not fully specified)
T21 chain: EGGDRRASGRRK

[22] = biological target: T22, SYTL4 peptide RQGKRKTSIKRDTVNPL (SEQ ID NO:87) (not fully specified)
T22 chain: RQGKRKTSIKRDTVNPL

[23] = biological target: T23, ankyrin R peptide DLIEGRKGAQIVKRASLKRG (SEQ ID NO:152) (not fully specified)
T23 chain: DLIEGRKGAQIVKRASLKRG

[24] = biological target: T24, beta adducin peptide KKKFRTPSFLKKSKK (SEQ ID NO:135) (not fully specified)
T24 chain: KKKFRTPSFLKKSKK

[25] = biological target: T25, cytohesin-2 peptide VDPFYEMLAARKKRISVKKK (SEQ ID NO:150) (not fully specified)
T25 chain: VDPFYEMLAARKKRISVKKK

[26] = biological target: T26, dag kinase iota peptide NRKKKRTSFKRKA (SEQ ID NO:117) (not fully specified)
T26 chain: NRKKKRTSFKRKA

[27] = biological target: T27, gravin peptide KKFFTQGWAGWRKKTSFRKP (SEQ ID NO:154) (not fully specified)
T27 chain: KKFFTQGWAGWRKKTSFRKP

[28] = biological target: T28, kinesin 3C peptide LEKRGMLGKRPRRKSSRRKK (SEQ ID NO:133) (not fully specified)
T28 chain: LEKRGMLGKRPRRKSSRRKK

[29] = biological target: T29, p164-RhoGEF peptide PRLIRRGSKKRPAR (SEQ ID NO:124) (not fully specified)
T29 chain: PRLIRRGSKKRPAR

[30] = biological target: T30, pkc-zeta peptide GLPAPGEDKSIYRRGSRRWR (SEQ ID NO:167) (not fully specified)
T30 chain: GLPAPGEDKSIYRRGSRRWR

[31] = biological target: T31, slp4 peptide TYLLPDKSRQGKRKTSIKRD (SEQ ID NO:153) (not fully specified)
T31 chain: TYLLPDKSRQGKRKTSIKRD

[32] = biological target: T32, titin peptide PFEVVWYKDKRQLRSSKKYK (SEQ ID NO:160) (not fully specified)
T32 chain: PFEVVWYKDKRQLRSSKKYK

B1: PKC-theta (protein)
chain: MSPFLRIGLSNFDCGSCQSCQGEAVNPYCAVLVKEYVESENGQMYIQKKPTMYPPWDSTFDAHINKGRVMQIIVKGKNVDLISETTVELYSLAERCRKNNGKTEIWLELKPQGRMLMNARYFLEMSDTKDMNEFETEGFFALHQRRGAIKQAKVHHVKCHEFTATFFPQPTFCSVCHEFVWGLNKQGYQCRQCNAAIHKKCIDKVIAKCTGSAINSRETMFHKERFKIDMPHRFKVYNYKSPTFCEHCGTLLWGLARQGLKCDACGMNVHHRCQTKVANLCGINQKLMAEALAMIESTQQARCLRDTEQIFREGPVEIGLPCSIKNEARPPCLPTPGKREPQGISWESPLDEVDKMCHLPEPELNKERPSLQIKLKIEDFILHKMLGKGSFGKVFLAEFKKTNQFFAIKALKKDVVLMDDDVECTMVEKRVLSLAWEHPFLTHMFCTFQTKENLFFVMEYLNGGDLMYHIQSCHKFDLSRATFYAAEIILGLQFLHSKGIVYRDLKLDNILLDKDGHIKIADFGMCKENMLGDAKTNTFCGTPDYIAPEILLGQKYNHSVDWWSFGVLLYEMLIGQSPFHGQDEEELFHSIRMDNPFYPRWLEKEAKDLLVKLFVREPEKRLGVRGDIRQHPLFREINWEELERKEIDPPFRPKVKSPFDCSNFDKEFLNEKPRLSFADRALINSMDQNMFRNFSFMNPGMERLIS
**Q.** Which in vitro phosphorylation (% of best substrate) [1] does the source give for B1 here?
**A.** 42

**Q.** What about the in vitro phosphorylation, 1 uM peptide (% of best substrate) [2] of the same protein?
**A.** 34

**Q.** What about the in vitro phosphorylation, 10 uM peptide (% of best substrate) [2] of the same protein?
**A.** 40

**Q.** And the in vitro phosphorylation (% of best substrate) [3]?
**A.** 25

**Q.** And the in vitro phosphorylation (% of best substrate) [4]?
**A.** 38

**Q.** What about the in vitro phosphorylation (% of best substrate) [5] of the same protein?
**A.** 47

**Q.** What about the in vitro phosphorylation (% of best substrate) [6] of the same protein?
**A.** 33

**Q.** And the in vitro phosphorylation, 1 uM peptide (% of best substrate) [7]?
**A.** 27

**Q.** And the in vitro phosphorylation, 10 uM peptide (% of best substrate) [7]?
**A.** 25

**Q.** What about the in vitro phosphorylation, 1 uM peptide (% of best substrate) [8] of the same protein?
**A.** 25

**Q.** And the in vitro phosphorylation, 10 uM peptide (% of best substrate) [8]?
**A.** 35

**Q.** And the in vitro phosphorylation (% of best substrate) [9]?
**A.** 38

**Q.** And the Peptide phosphorylation by PKC-theta [10]?
**A.** 57

**Q.** And the in vitro phosphorylation, 1 uM peptide (% of best substrate) [10]?
**A.** 51

**Q.** And the in vitro phosphorylation, 10 uM peptide (% of best substrate) [10]?
**A.** 57

**Q.** What about the in vitro phosphorylation (% of best substrate) [11] of the same protein?
**A.** 32

**Q.** And the in vitro phosphorylation (% of best substrate) [12]?
**A.** 56

**Q.** What about the in vitro phosphorylation (% of best substrate) [13] of the same protein?
**A.** 63

**Q.** What about the in vitro phosphorylation, 1 uM peptide (% of best substrate) [14] of the same protein?
**A.** 69

**Q.** And the in vitro phosphorylation, 10 uM peptide (% of best substrate) [14]?
**A.** 28

**Q.** What about the in vitro phosphorylation, 1 uM peptide (% of best substrate) [15] of the same protein?
**A.** 45

**Q.** What about the in vitro phosphorylation, 10 uM peptide (% of best substrate) [15] of the same protein?
**A.** 58

**Q.** What about the in vitro phosphorylation, 1 uM peptide (% of best substrate) [16] of the same protein?
**A.** 53

**Q.** And the in vitro phosphorylation, 10 uM peptide (% of best substrate) [16]?
**A.** 35

**Q.** And the in vitro phosphorylation, 1 uM peptide (% of best substrate) [17]?
**A.** 38

**Q.** And the in vitro phosphorylation, 10 uM peptide (% of best substrate) [17]?
**A.** 44

**Q.** And the in vitro phosphorylation, 1 uM peptide (% of best substrate) [18]?
**A.** 34

**Q.** And the in vitro phosphorylation, 10 uM peptide (% of best substrate) [18]?
**A.** 39

**Q.** What about the in vitro phosphorylation (% of best substrate) [19] of the same protein?
**A.** 25

**Q.** What about the in vitro phosphorylation, 1 uM peptide (% of best substrate) [20] of the same protein?
**A.** 13

**Q.** What about the in vitro phosphorylation, 10 uM peptide (% of best substrate) [20] of the same protein?
**A.** 13

**Q.** And the in vitro phosphorylation (% of best substrate) [21]?
**A.** 22

**Q.** And the in vitro phosphorylation (% of best substrate) [22]?
**A.** 65

**Q.** What about the in vitro phosphorylation, 1 uM peptide (% of best substrate) [23] of the same protein?
**A.** 31

**Q.** What about the in vitro phosphorylation, 10 uM peptide (% of best substrate) [23] of the same protein?
**A.** 30

**Q.** And the in vitro phosphorylation, 1 uM peptide (% of best substrate) [24]?
**A.** 30

**Q.** And the in vitro phosphorylation, 10 uM peptide (% of best substrate) [24]?
**A.** 36

**Q.** What about the in vitro phosphorylation, 1 uM peptide (% of best substrate) [25] of the same protein?
**A.** 35

**Q.** What about the in vitro phosphorylation, 10 uM peptide (% of best substrate) [25] of the same protein?
**A.** 35

**Q.** And the in vitro phosphorylation, 1 uM peptide (% of best substrate) [26]?
**A.** 84

**Q.** What about the in vitro phosphorylation, 10 uM peptide (% of best substrate) [26] of the same protein?
**A.** 78

**Q.** What about the in vitro phosphorylation, 1 uM peptide (% of best substrate) [27] of the same protein?
**A.** 34

**Q.** And the in vitro phosphorylation, 10 uM peptide (% of best substrate) [27]?
**A.** 21

**Q.** What about the in vitro phosphorylation, 1 uM peptide (% of best substrate) [28] of the same protein?
**A.** 46

**Q.** What about the in vitro phosphorylation, 10 uM peptide (% of best substrate) [28] of the same protein?
**A.** 53

**Q.** What about the in vitro phosphorylation, 1 uM peptide (% of best substrate) [29] of the same protein?
**A.** 53

**Q.** What about the in vitro phosphorylation, 10 uM peptide (% of best substrate) [29] of the same protein?
**A.** 57

**Q.** And the in vitro phosphorylation, 1 uM peptide (% of best substrate) [30]?
**A.** 12

**Q.** What about the in vitro phosphorylation, 10 uM peptide (% of best substrate) [30] of the same protein?
**A.** 14

**Q.** What about the in vitro phosphorylation, 1 uM peptide (% of best substrate) [31] of the same protein?
**A.** 22

**Q.** And the in vitro phosphorylation, 10 uM peptide (% of best substrate) [31]?
**A.** 18

**Q.** What about the in vitro phosphorylation, 1 uM peptide (% of best substrate) [32] of the same protein?
**A.** 19

**Q.** What about the in vitro phosphorylation, 10 uM peptide (% of best substrate) [32] of the same protein?
**A.** 25
